Source: PMC10206564

Target: His954 (UniProt position 954, […])
Assay: NMR
Conditions: 30 mM NaCl plus 20 mM sodium phosphate, Folded post-fusion six-helix bundle (6HB) state, 0.15 mM protein, no lipid

For “Spike glycoprotein S2 HR1-HR2 fusion core ('Core') Q954H variant (Severe acute respiratory syndrome coronavirus 2 (SARS-CoV-2); Q954H)”, the pKa was 6.40.
